{"source": "patent US20060239990A1", "about": "(published 2006)", "binders": {"B1": {"name": "HA-tagged PRMT2 (human Protein Arginine N-Methyltransferase 2, expressed from pVR1012-PRMT2-HA) (enzyme)", "chain": "MATSGDCPRSESQGEEPAECSEAGLLQEGVQPEEFVAIADYAATDETQLSFLRGEKILILRQTTADWWWGERAGCCGYIPANHVGKHVDEYDPEDTWQDEEYFGSYGTLKLHLEMLADQPRTTKYHSVILQNKESLTDKVILDVGCGTGIISLFCAHYARPRAVYAVEASEMAQHTGQLVLQNGFADIITVYQQKVEDVVLPEKVDVLVSEWMGTCLLFEFMIESILYARDAWLKEDGVIWPTMAALHLVPCSADKDYRSKVLFWDNAYEFNLSALKSLAVKEFFSKPKYNHILKPEDCLSEPCTILQLDMRTVQISDLETLRGELRFDIRKAGTLHGFTAWFSVHFQSLQEGQPPQVLSTGPFHPTTHWKQTLFMMDDPVPVHTGDVVTGSVVLQRNPVWRRHMSVALSWAVTSRQDPTSQKVGEKVFPIWR", "notes": "Expressed by transient transfection in 293 or Saos 2 cells; also called HA-PRMT2; not shown: HA tag at the C-terminus"}}, "key": {"[1]": {"biological_target": "T1, STAT3, endogenous in HEK293 cells (human, UniProt P40763 2-770)", "T1 construct": "also called endogenous STAT3", "T1 sequence (P40763 2-770 limits assumed)": "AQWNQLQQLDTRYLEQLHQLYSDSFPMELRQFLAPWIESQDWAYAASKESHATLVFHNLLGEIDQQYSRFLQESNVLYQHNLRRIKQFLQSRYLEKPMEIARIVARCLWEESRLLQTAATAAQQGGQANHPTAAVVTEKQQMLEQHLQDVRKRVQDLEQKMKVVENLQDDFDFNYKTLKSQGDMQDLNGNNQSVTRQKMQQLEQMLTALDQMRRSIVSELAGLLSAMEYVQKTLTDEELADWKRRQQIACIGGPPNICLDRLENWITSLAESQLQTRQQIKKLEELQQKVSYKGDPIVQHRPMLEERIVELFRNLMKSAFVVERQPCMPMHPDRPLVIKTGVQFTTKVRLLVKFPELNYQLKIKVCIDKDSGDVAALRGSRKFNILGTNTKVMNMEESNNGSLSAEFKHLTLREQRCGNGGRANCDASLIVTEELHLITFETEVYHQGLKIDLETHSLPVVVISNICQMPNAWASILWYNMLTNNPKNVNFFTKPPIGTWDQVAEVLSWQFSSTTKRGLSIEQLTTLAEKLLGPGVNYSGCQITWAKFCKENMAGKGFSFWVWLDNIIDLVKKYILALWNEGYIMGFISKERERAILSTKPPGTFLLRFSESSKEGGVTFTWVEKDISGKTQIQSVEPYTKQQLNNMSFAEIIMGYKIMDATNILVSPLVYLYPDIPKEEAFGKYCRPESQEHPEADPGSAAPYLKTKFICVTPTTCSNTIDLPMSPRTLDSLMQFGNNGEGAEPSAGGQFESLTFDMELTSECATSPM", "test": "immunoprecipitation with anti-Flag antibody from transfected HEK293 cells, immunoblot", "protocol": "(§1) To examine whether a direct interaction occurs between PRMT-2 and STAT3 in vivo, FLAG-tagged full-length PRMT-2 cDNA and/or STAT3 cDNA were transiently transfected into HEK293 cells. After culturing the transfected cells, an immunoprecipitation was performed on cell lysates using anti-Flag antibodies followed by immunoblotting with anti-PRMT-2 antibody. […] Identical results were observed when using anti-STAT3 antibodies for immunoprecipitation (data not shown)."}, "[2]": {"biological_target": "mouse STAT3 (endogenous in GT1-7 cells and VSMC, or expressed from mouse STAT3 pcDNA3 in HEK293 cells) (mouse, UniProt P42227 2-770)", "sequence (P42227 2-770 limits assumed)": "as the sequence (P40763 2-770 limits assumed) above, with E759D counted along it", "test": "immunoprecipitation with anti-Flag antibody from HEK293 cells transfected with PRMT-2-Flag and STAT3, immunoblot", "protocol": "as §1"}, "[3]": {"biological_target": "B1", "test": "immunoprecipitation with anti-HA antibody from transfected 293 cells, immunoblot for endogenous IκB-α", "text": "(§2) To map IκB-α domains that interacted with PRMT2, 293 cells were transfected with HA-tagged PRMT2 (FIG. 5C) and His-tagged derivatives of the indicated IκB-α expression vectors (FIG. 5B) as indicated. 24 hrs later cells were harvested in cell lysis buffer and cell lysates were immunoprecipitated with agarose-conjugated antibody to His (IκB-α) (FIG. 5D, lanes 1-4) and HA (PRMT2) (FIG. 5D, lanes 5-6), fractionated by SDS-PAGE and analyzed by immunoblotting with antibody to HA to detect PRMT2 ((FIG. 5D lanes 1, 2 and lanes 5, 6) and His (FIG. 5D, lanes 3, 4). To map the region of PRMT2 that interacted with endogenous IκB-α and p65, 293 cells were transfected with HA-tagged PRMT2 (FIG. 5C) derivatives as indicated. Cells were harvested 24 hrs after transfection in cell lysis buffer, immunoprecipitated with agarose-conjugated antibody to HA to detect PRMT2 and derivatives (FIG. 5E, lanes 7-15), fractionated by SDS-PAGE and analyzed by immunoblotting with antibody to p65 (FIG. 5E, lanes 7-9), IκB-α (FIG. 5E, lanes 10-12) or HA (FIG. 5E, lanes 13-15).\nA polyclonal antibody to recombinant PRMT2 was used to examine the association between endogenous PRMT2 and IκB-α in vivo. […] The domain of IκB-α required for association with PRMT2 was mapped using in vivo immunoprecipitation assays where HA-tagged PRMT2 was coexpressed with truncation mutants of His-tagged IκB-α (FIG. 5B) in 293 cells. […]"}, "RelA (p65) in 293 cells": {"biological_target": "T2, RelA (p65) in 293 cells (UniProt Q04206 1-551)", "T2 construct": "also called endogenous p65", "T2 sequence (Q04206 whole entry, the tested form may be a part)": "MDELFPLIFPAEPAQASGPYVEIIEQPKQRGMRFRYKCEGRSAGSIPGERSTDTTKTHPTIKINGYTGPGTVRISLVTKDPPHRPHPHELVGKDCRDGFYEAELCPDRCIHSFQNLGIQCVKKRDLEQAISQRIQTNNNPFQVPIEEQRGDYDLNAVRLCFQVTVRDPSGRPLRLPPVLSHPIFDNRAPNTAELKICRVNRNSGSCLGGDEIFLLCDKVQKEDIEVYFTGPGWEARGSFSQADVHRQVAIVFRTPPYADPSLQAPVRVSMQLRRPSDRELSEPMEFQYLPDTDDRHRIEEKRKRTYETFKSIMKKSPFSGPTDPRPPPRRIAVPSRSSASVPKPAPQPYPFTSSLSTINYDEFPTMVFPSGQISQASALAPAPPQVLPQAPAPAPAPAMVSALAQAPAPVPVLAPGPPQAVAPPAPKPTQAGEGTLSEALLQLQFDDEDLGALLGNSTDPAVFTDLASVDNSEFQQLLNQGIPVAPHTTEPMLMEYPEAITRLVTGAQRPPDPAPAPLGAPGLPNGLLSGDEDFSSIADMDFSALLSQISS", "test": "immunoprecipitation with anti-HA antibody from transfected 293 cells, immunoblot for p65", "text": "as §2\nA polyclonal antibody to recombinant PRMT2 was used to examine the association between endogenous PRMT2 and IκB-α in vivo. […] The domain of IκB-α required for association with PRMT2 was mapped using in vivo immunoprecipitation assays where HA-tagged PRMT2 was coexpressed with truncation mutants of His-tagged IκB-α (FIG. 5B) in 293 cells. The ankyrin domain was both necessary and sufficient for this association (FIG. 5D, lanes 1 and 2). The domain of PRMT2 that interacted with endogenous IκB-α was mapped by immunoprecipitation following expression HA-tagged PRMT2 truncation mutants (FIG. 5C). […] When the ratios of PRMT2 or PRMT2-A binding to IκB-α were compared, both interacted with IκB-α with similar affinity."}, "[4]": {"biological_target": "T3, retinoblastoma protein (RB), endogenous in cultured cell lines (293, U2OS) (human, UniProt P06400 2-928)", "T3 construct": "also called endogenous RB", "T3 sequence (looked up)": "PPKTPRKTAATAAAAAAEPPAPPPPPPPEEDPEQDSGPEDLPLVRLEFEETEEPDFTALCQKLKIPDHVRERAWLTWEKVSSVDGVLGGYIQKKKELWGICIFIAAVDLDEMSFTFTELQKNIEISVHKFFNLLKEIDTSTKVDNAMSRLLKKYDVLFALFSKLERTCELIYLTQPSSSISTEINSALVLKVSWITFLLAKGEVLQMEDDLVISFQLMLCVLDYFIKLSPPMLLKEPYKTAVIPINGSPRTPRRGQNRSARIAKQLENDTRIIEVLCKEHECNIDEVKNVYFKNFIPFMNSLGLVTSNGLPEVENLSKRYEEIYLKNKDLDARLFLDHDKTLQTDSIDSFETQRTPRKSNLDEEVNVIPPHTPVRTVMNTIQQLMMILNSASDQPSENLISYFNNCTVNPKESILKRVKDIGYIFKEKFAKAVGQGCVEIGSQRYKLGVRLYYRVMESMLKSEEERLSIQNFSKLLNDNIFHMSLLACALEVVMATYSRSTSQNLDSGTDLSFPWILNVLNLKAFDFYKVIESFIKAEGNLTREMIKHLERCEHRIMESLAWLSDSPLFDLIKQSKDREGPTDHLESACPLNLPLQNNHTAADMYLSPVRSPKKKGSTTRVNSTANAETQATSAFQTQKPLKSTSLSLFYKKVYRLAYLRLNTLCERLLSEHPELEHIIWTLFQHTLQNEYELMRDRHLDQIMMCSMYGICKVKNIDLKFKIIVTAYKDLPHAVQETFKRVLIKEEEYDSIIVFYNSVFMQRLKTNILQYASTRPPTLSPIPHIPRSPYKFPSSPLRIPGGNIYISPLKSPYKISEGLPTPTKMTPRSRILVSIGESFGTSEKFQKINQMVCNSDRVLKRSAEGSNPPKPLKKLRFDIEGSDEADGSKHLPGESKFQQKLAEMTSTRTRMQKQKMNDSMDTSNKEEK", "test": "immunoprecipitation of endogenous RB from 293 cells transfected with HA-tagged PRMT2, Western blot with anti-HA antibody", "protocol": "FIG. 8A-C illustrate that PRMT2 interacts with retinoblastoma protein (RB). […] GST-RB and GST were bound to glutathione sepharose beads and incubated with S³⁵-labeled in vitro translated PRMT1, PRMT2, PRMT3, and PRMT4. Co-precipitated labeled PRMTs were analyzed by SDS-PAGE. […] HA-tagged PRMT2 (+) or control vectors (−) were transfected in 293 cells. Cell lysates were immunoprecipitated with rabbit RB antibodies or IgG and followed by Western blot analysis using mouse HA and RB antibodies (upper panel). A Western blot using mouse HA antibodies detects HA-tagged PRMT2 (lower panel).\nThe interaction of PRMT2 with RB was then analyzed in vivo. HA-tagged PRMT2 expression vectors or control vectors were transfected into 293 cells, and immunoprecipitation of endogenous RB was followed by a Western blot analysis using an anti-HA antibody. PRMT2 directly interacted with RB in contrast to control vectors (FIG. 8C)."}}, "data": [{"binder": "mouse PRMT2-Flag (FLAG-tagged full-length PRMT-2) (enzyme, UniProt Q9R144 1-448, looked up, Printed both as PRMT2-Flag and as Flag-PRMT2, so the end that carries the tag is uncertain; Expressed in HEK293 cells; also called Flag-PRMT2; Flag PRMT2 fusion protein; not shown: Flag tag) MEAPGEGPCSESQVIPVLEEDPVDYGCEMQLLQDGAQLQLQLQPEEFVAIADYTATDETQLSFLRGEKILILRQTTADWWWGERAGCCGYIPANHLGKQLEEYDPEDTWQDEEYFDSYGTLKLHLEMLADQPRTTKYHSVILQNKESLKDKVILDVGCGTGIISLFCAHHARPKAVYAVEASDMAQHTSQLVLQNGFADTITVFQQKVEDVVLPEKVDVLVSEWMGTCLLFEFMIESILYARDTWLKGDGIIWPTTAALHLVPCSAEKDYHSKVLFWDNAYEFNLSALKSLAIKEFFSRPKSNHILKPEDCLSEPCTILQLDMRTVQVPDLETMRGELRFDIQKAGTLHGFTAWFSVYFQSLEEGQPQQVVSTGPLHPTTHWKQTLFMMDDPVPVHTGDVVHGFCCVTKKSGMEKAHVCLSELGCHVRTRSHVSTELETGSFRSGGDS", "values": [{"measurement": "binding result", "setting": "[1]", "value": "binds"}, {"measurement": "binding result", "setting": "[2]", "value": "binds"}]}, {"binder": "IκB-α, endogenous in 293 cells (other, human, UniProt P25963 1-317, looked up, also called endogenous IκB-α) MFQAAERPQEWAMEGPRDGLKKERLLDDRHDSGLDSMKDEEYEQMVKELQEIRLEPQEVPRGSEPWKQQLTEDGDSFLHLAIIHEEKALTMEVIRQVKGDLAFLNFQNNLQQTPLHLAVITNQPEIAEALLGAGCDPELRDFRGNTPLHLACEQGCLASVGVLTQSCTTPHLHSILKATNYNGHTCLHLASIHGYLGIVELLVSLGADVNAQEPCNGRTALHLAVDLQNPDLVSLLLKCGADVNRVTYQGYSPYQLTWGRPSTRIQQQLGQLTLENLQMLPESEDEESYDTESEFTEFTEDELPYDDCVFGGQRLTL", "values": [{"measurement": "binding result", "setting": "[3]", "value": "binds"}]}, {"binder": "B1", "values": [{"measurement": "binding result", "setting": "RelA (p65) in 293 cells", "value": "no binding"}, {"measurement": "binding result", "setting": "[4]", "value": "binds"}]}]}
